Reference: the RNAGym collection of RNA variant scans (doi:10.7554/elife.80360)

B1: CPEB3 Ribozyme (parent)
chain: GGGGGCCACAGCAGAAGCGUUCACGUCGCGGCCCCUGUCAGAUUCUGGUGAAUCUGCGAAUUCUGCUGU

Variants of: B1
Assay: self-cleavage, relative activity (ratio to wild type); higher = more cleavage; co-transcriptional
For GGGGGCCACAGCAGAAGGGUUCACGUCGCGGCCCCUGUCAGAUUCUGGUGAAUCUGCGAAUUCUGCUGC, the self-cleavage was 0.352. Work on GGGGGCCACAGCAGAAGGGUUCACGUCGCGGCCCCUGUCAGAUUCUGGUGAAUCUGCGAAUUCUGCUGA yielded a self-cleavage of 0.26. Work on GGGGGCCACAGCAGAAGGGUUCACGUCGCGGCCCCUGUCAGAUUCUGGUGAAUCUGCGAAUUCUGCUGG yielded a self-cleavage of 0.252. GGGGGCCACAGCAGAAGUGUUCACGUCGCGGCCCCUGUCAGGUUCUGGUGAAUCUGCGAAUUCUGCUGU showed a self-cleavage of 0.579. Variant GGGGGCCACAGCAGAAGUGUUCACGUCGCGGCCCCUGUCAGCUUCUGGUGAAUCUGCGAAUUCUGCUGU has a self-cleavage of 0.556. With GGGGGCCACAGCAGAAGGGUUCACGUCGCGGCCCCUGUCAGAUUCUAGUGAAUCUGCGAAUUCUGCUGU the self-cleavage was 0.21. Variant GGGGGCCACAGCAGAAGUGUUCACGUCGCGGCCCCUGUCAGAUUCUGGUGAAUCUGCGGAUUCUGCUGU has a self-cleavage of 0.793. In the case of GGGGGCCACAGCAGAAGUGUUCUCGUCGCGGCCCCUGUCAGAUUCUGGUGAAUCUGCGAAUUCUGCUGU, the self-cleavage is reported as 0.877. For GGGGGCCACAGCAGAAGUGUUCGCGUCGCGGCCCCUGUCAGAUUCUGGUGAAUCUGCGAAUUCUGCUGU, the self-cleavage was 0.715. GGGGGCCACAGCAGAAGUGUUCCCGUCGCGGCCCCUGUCAGAUUCUGGUGAAUCUGCGAAUUCUGCUGU gave a self-cleavage of 0.746. Work on GGGGGCCACAGCAGAAGUGUUCACGUCGCGGCCCCUGUCAGAUUCUGGUGUAUCUGCGAAUUCUGCUGU yielded a self-cleavage of 0.851. Work on GGGGGCCACAGCAGAAGUGUUCACGUCGCGGCCCCUGUCAGAUUCUGGUGGAUCUGCGAAUUCUGCUGU yielded a self-cleavage of 0.853. GGGGGCCACAGCAGAAGGGUUCACGUCGCGGCCCCUGUCAGACUCUGGUGAAUCUGCGAAUUCUGCUGU showed a self-cleavage of 0.188. Variant GGGGGCCACAGCAGAAGGGUUCACGUCGCGGCCCCUGUCAGAGUCUGGUGAAUCUGCGAAUUCUGCUGU has a self-cleavage of 0.0435. Work on GGGGGCCACAGCAGAAGGGUUCACGUCGCGGCCCCUGUCAGAAUCUGGUGAAUCUGCGAAUUCUGCUGU yielded a self-cleavage of 0.114. Variant GGGGGCCACAGCAGAAGUGUUCACGUCGCGGCCACUGUCAGAUUCUGGUGAAUCUGCGAAUUCUGCUGU has a self-cleavage of 0.352. For GGGGGCCACAGCAGAAGGGUUCACGGCGCGGCCCCUGUCAGAUUCUGGUGAAUCUGCGAAUUCUGCUGU, the self-cleavage was 0.267. GGGGGCCACAGCAGAAGGGUUCACGACGCGGCCCCUGUCAGAUUCUGGUGAAUCUGCGAAUUCUGCUGU showed a self-cleavage of 0.119. GGGGGCCACAGCAGAAGGGUUCACGCCGCGGCCCCUGUCAGAUUCUGGUGAAUCUGCGAAUUCUGCUGU gave a self-cleavage of 0.175. Variant GGGGGCCACAGCAGAAGGGGUCACGUCGCGGCCCCUGUCAGAUUCUGGUGAAUCUGCGAAUUCUGCUGU has a self-cleavage of 0.218. For GGGGGCCACAGCAGAAGGGCUCACGUCGCGGCCCCUGUCAGAUUCUGGUGAAUCUGCGAAUUCUGCUGU, the self-cleavage was 0.0509. In the case of GGGGGCCACAGCAGAAGUGUUCACGUCGCGGCCCCUGUCAGAUUCUGGUGAAUCUGCGAAUUCUGCUGU, the self-cleavage is reported as 0.926. GGGGGCCACAGCAGAAGGGUUCACGUCGCGGCCCCUGCCAGAUUCUGGUGAAUCUGCGAAUUCUGCUGU showed a self-cleavage of 0.234. In the case of GGGGGCCACAGCAGAAGGGUUCACGUCGCGGCCCCUGGCAGAUUCUGGUGAAUCUGCGAAUUCUGCUGU, the self-cleavage is reported as 0.155. Variant GGGGGCCACAGCAGAAGUGUUCACGUAGCGGCCCCUGUCAGAUUCUGGUGAAUCUGCGAAUUCUGCUGU has a self-cleavage of 0.198. GGGGGCCACAGCAGAAGUGUUCACGUUGCGGCCCCUGUCAGAUUCUGGUGAAUCUGCGAAUUCUGCUGU showed a self-cleavage of 0.121. Variant GGGGGCCACAGCAGAAGUGUUCACGUGGCGGCCCCUGUCAGAUUCUGGUGAAUCUGCGAAUUCUGCUGU has a self-cleavage of 0.194. For GGGGGCCACAGCAGAAGUGUUCACGUCGCGGCCCCUGUCCGAUUCUGGUGAAUCUGCGAAUUCUGCUGU, the self-cleavage was 0.197. GGGGGCCACAGCAGAAGGGUUCACGUCGCGGCCCCUGUCAGAUUCUGGUGAAGCUGCGAAUUCUGCUGU showed a self-cleavage of 0.199. With GGGGGCCACAGCAGAAGGGUUCACGUCGCGGCCCCUGUCAGAUUCUGGUGAACCUGCGAAUUCUGCUGU the self-cleavage was 0.0868. With GGGGGCCACAGCAGAAGGGUUCACGUCGCGGCCCCUGUCAGAUUCUGGUGAAACUGCGAAUUCUGCUGU the self-cleavage was 0.177. Work on GGGGGCCACAGCAGAAGUGUUGACGUCGCGGCCCCUGUCAGAUUCUGGUGAAUCUGCGAAUUCUGCUGU yielded a self-cleavage of 0.197. With GGGGGCCACAGCAGAAGUGUUUACGUCGCGGCCCCUGUCAGAUUCUGGUGAAUCUGCGAAUUCUGCUGU the self-cleavage was 0.108. With GGGGGCCACAGCAGAAGGGUUCACGUCGCGGCCCCCGUCAGAUUCUGGUGAAUCUGCGAAUUCUGCUGU the self-cleavage was 0.122. Work on GGGGGCCACAGCAGAAGGGUUCACGUCGCGGCCCCGGUCAGAUUCUGGUGAAUCUGCGAAUUCUGCUGU yielded a self-cleavage of 0.145. Variant GGGGGCCACAGCAGAAGGGUUCACGUCGCGGCCCCAGUCAGAUUCUGGUGAAUCUGCGAAUUCUGCUGU has a self-cleavage of 0.12. With GGGGGCCACAGCAGAAGUGUUCACGUCGCGGCCCCUGUCAGAUUCUGGUGAGUCUGCGAAUUCUGCUGU the self-cleavage was 0.923. In the case of GGGGGCCACAGCAGAAGUGUUCACGUCGCGGCCCCUGUCAGAUUCUGGUGACUCUGCGAAUUCUGCUGU, the self-cleavage is reported as 0.759. For GGGGGCCACAGCAGAAGUGUUCACGUCGCGGCCCCUGUCAGAUUCUGGUGAUUCUGCGAAUUCUGCUGU, the self-cleavage was 0.87.
